Substitutions are numbered along the chain they refer to.
T1: Human GDF8 homodimer (mature human Growth and Differentiation Factor-8) (human, UniProt O14793 267-375)
T1 sequence: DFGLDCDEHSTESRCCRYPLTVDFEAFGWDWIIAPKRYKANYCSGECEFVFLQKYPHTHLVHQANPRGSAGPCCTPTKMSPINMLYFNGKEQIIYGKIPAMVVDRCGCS

T2: hGDF11 homodimer (human, UniProt O95390 299-407)
T2 sequence (looked up): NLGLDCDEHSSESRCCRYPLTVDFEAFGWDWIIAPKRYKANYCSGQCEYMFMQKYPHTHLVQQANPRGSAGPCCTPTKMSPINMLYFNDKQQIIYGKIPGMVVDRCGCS

B1: 8D12-1 (antibody, V domains shown)
VH: QVQLVESGGGVVQPGRSLRLSCAASGFTFSRYGIHWVRQAPGKGLEWVAVISYDGSDEYYVDSVKGRFSISRDNSKNTLYLQMNSLRPADSAVYYCVKGDLELGFDYWGQGTLVTVSS
VL: DIVMTQAAPSIPVIPGESVSMSCRSSKSLLYSNGHTYVYWFVQRPGQSPQLLIYRMSNLASGVPDRFSGSGSGTAFTLRISRVEAEDVGVYYCMQNLEFPLTFGAGTKLELK
notes: probably the same antibody as 8D12
B2: 20B12 (antibody, V domains shown)
VH: EVQLLESGGGLVQPGGSLRLSCAGSGITFSSYAMSWVRQAPGKGLEWVSAISGNGGTTNYADSVKGRFTISRDNSKNTLYLQMNSLRAEDTAVYYCAKERILTSSWTRYGIMDVWGQGTTVTVSS
VL: EIVMTQSPATLSMSPGERATLSCRASQSVSSNLAWYQQKPGQAPRLLIYGASTRATGIPARFSGSGSGTEFTLTISSLQSEDFAVYYCQQYNNWPLTFGGGTKLEIK
B3: 4B9 (antibody, V domains shown)
VH: EVQLLESGGGLVQPGGSLRLSCAASGFTSITYAMSWVRQAPGKGLEWVSAISVSGTNTYYADSVKGRFTISRDKSKNMLYLQMNSLRAEDTAVYYCAKDLLHNWKYGTFDIWGQGTMVTVSS
VL: B2 VL with M13V, S30D, A34V, A43V, N93K, L104V
B4: 4E3-7 (antibody, V domains shown)
VH: EVQLLESGGGLVQPGGSLRLSCVASRFTFSSNAMSWVRQAPGTGLEWVSAITGSGSRTYYADSVKGRFTISRDNSKNTVYLQMNSLRGEDTAVYYCAKDQGGTWNYGDFDYWGQGTLVTVSS
VL: B2 VL with M13V, I58L, E70D, L104V
B5: 3A4-3 (antibody, V domains shown)
VH: QVQLVQSGGGLVKPGGSLRLSCAASGFIFNTYTMNWVRQAPGKGLEWVSSITSRGTYIFYSDSLKGRFTISRDNANNSLFLQMNSLRVEDTAVYYCSRDRGYTFGPDYWGQGTLVTVSS
VL: DIQMTQSPSSLSASVGDRVTITCRASQDIRNDLGWYQQKPGKAPKGLIYAASSLQSGVPSRFSGSGSGTEFTLTISSLQPEDFATYHCLHYDFHPRTFGQGTKVEIK
B6: 22-D3 (antibody, V domains shown)
VH: QVQLVQSGGGLVKPGGSLRLSCAASGFTFSSYSMNWVRQAPGKGLEWVSSISSSSSYIYYADSVKGRFTISRDNAKNSLYLQMNSLRAEDTAVYYCARDRGYTFGVDYWGQGTTVTVSS
VL: AIQMTQSPSSLSASVGDRVTITCRASQGIRNDLGWYQQKPGKAPKRLIYAASSLQSGVPSRFSGSGSGTEFTLTISSLQPEDFATYYCLQHNSYPYTFGQGTKVEIKR
B7: 22-E6 (antibody, V domains shown)
VH: QVQLVQSGPGLVKPSETLSLTCTVSGGSIITYSYYWGWIRQPPGKGLEWIGTIHHSGSTYYNPSLKSRVTISVDTSKNQFSLTLSSVTAADTAVYYCARDYYDSSGYYYNWFDPWGQGTMVTVSS
VL: B6 VL with Y94S, Y96W
B8: 21-B9 (antibody, V domains shown)
VH: B7 VH with I30S, T31N, Y32S, S33N, I53T, H54Y, H55Y, S58T, T83K, M120T
VL: B6 VL with A1D, M4L, G28D, T72S, I75L, Y87F, N92H, S93I, Y96W, V104L
B9: 21-E9 (antibody, V domains shown)
VH: EVQLVQLGPGLVKPSETLSLTCTVSGGSISNSNYYWGWIRQPPGKGLEWIGTTYYSGTTYYNPSLKSRVTISVDTSKNQFSLKLSSVTAADTAVYYCARDYYDSSGYYYNWFDPWGQGTTVTVSS
VL: B6 VL with G28D, T72S, I75L, Y87F, N92H, S93I, Y96W
B10: 19F2 (antibody, V domains shown)
VH: QVQLVESGGGVVQPGRSLRLSCEASGFTFSSSGMHWVRQAPGKGLQWVAVISYDGNNKFYEDSVKGRLTISRDNSNNTLWLQMNSLRVEDTAVYYCAKSGGRVGAAFAYWGQGTLVTVSS
VL: DIVNTQSPLSLPVTPGEPASISCRSSQSLLYGNGYNYLDWYLQKPGHSPQLLIYLGSNRGSGVPDRFSGSGSGTDFTLKISRVEAEDVGIYYCMQTLQTPFTFGPGTKMYIK
B11: 4G3-25 (antibody, V domains shown)
VH: QVQLVESGGGVVQPGRSLRLSCVVSGFNFSRNGIHWVRQAPGKGLEWVAVISYDGRNKFYVESVKGRFTISRDNSKNTLYLQMNSLRVEDTAVYYCAKSSIGGFFEYWGQGTLVTVSS
VL: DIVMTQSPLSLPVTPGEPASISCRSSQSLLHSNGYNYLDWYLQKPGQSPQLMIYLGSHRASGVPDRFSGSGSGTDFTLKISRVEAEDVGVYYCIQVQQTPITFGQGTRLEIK
B12: 22-G10 (antibody, V domains shown)
VH: QVHLKESGPTLVKPTQTLTLTCTFSGFSLSTSGVGVGWIRQPPGKALEWLALIYWNDDKRYSPSLKSRLTITKDTSKNQVVLTMTNMDPVDTATYYCTHTSRYNWHYGFLDYWGQGTTVTVSS
VL: AIQMTQSPSSLSASVGDRVTITCRASQGISNYLAWFQQKPGKAPKSLIYAASSLQSGVPSKFSGSGSGTDFTLTISSLQPEDFATYYCQQYNSYPLTFGGGTKVEIKR
B13: 58C8 (antibody, V domains shown)
VH: B3 VH
VL: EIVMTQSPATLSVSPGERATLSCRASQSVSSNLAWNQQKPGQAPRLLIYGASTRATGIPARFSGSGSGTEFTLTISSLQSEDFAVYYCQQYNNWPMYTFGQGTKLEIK
B14: 1H4-5 (antibody, V domains shown)
VH: QVQLVESGGDVVQPGRSLRLSCTASGFTFSSYGMHWVRQAPGRGLEWVAVISFDGKNKYYADSVKGRFTVSRDNSKNTLFLQMNSLRAEDTALYYCAKRIAATGYYYFYGLDVWGQGTTVTVSS
VL: B2 VL with V3M, M13V, A19G, T56S, I75V, L104V
B15: 3E2-1 (antibody, V domains shown)
VH: QVQLQQWGAGLLKPSETLSLTCAVYGGSFSGYYWSWIRQPPGKGLEWIGEINHSGNTNYNPSLKSRVTISVDTSKNQFSLKLNSVTAADTAVYYCARREATVTPYFDYWGQGTLVTVSS
VL: DIQLTQSPSFLSASVGDRVTITCWASQGISSYLAWYQQKPGKAPKLLIYAASTLQSGVPSRFSGSGSGTEFTLTISSLQPEDFATYYCQQLNSYPLTFGGGTKVEIK
B16: 9B4-3 (antibody, V domains shown)
VH: EVQLLESGGGLVQPGESLRLSCAASGFTFSSYAMNWVRQAPGKGLEWVSTISGSGGYIYYADSVKGRFTISRDNSKNTLYLQMNSLRAEDTAVYFCAKDSRYNWNYGNFDYWGQGTLVTVSS
VL: EIVMTQSPATLSVSPGERATLSCRASQNVSSNLAWNKQKPGQAPRLLIYATSTRATGVPARFSASGSGTDFALTINSLQSEDFAVYYCQQYNNWPLTFGGGTKVEIK

target: T1, Human GDF8 homodimer (mature human …); assay: cell-based or functional assay

First: B1
Second: B2
The “IC50, GDF8-inducible luciferase, A204/Smad2 cells, 0.8 nM GDF8” value (shortened to “IC50 … A204/Smad2 cells, 0.8 nM GDF8”) of the first is lower: 2.4 nM for the first, > 20 nM for the second.

Compared with B3, B4 is 22-fold higher in “IC50 … A204/Smad2 cells, 0.8 nM GDF8” value: 0.47 nM for the first, 10.4 nM for the second.

Going from B5 to B6, the “IC50 … A204/Smad2 cells, 0.8 nM GDF8” value rises from 3.1 nM to > 20 nM.

Going from B7 to B8, the “IC50 … A204/Smad2 cells, 0.8 nM GDF8” value falls from 2.2 nM to 0.62 nM (3.5-fold).

Going from B9 to B10, the “IC50 … A204/Smad2 cells, 0.8 nM GDF8” value rises from 0.99 nM to > 20 nM.

Compared with B11, B12 is lower in “IC50 … A204/Smad2 cells, 0.8 nM GDF8” value: > 25 nM for the first, 10.5 nM for the second.

B13 was tested, and the “IC50 … A204/Smad2 cells, 0.8 nM GDF8” value was 1.8 nM.

target: T2, hGDF11 homodimer; assay: cell-based or functional assay

B1 and B2 cannot be ordered by “IC50, GDF11-inducible luciferase, A204/Smad2 cells, 0.8 nM GDF11” value (from here on “IC50 … A204/Smad2 cells, 0.8 nM GDF11”): > 25 nM for the first, > 25 nM for the second.

B3 and B4 cannot be ordered by “IC50 … A204/Smad2 cells, 0.8 nM GDF11” value: > 25 nM for the first, > 25 nM for the second.

B5 and B6 cannot be ordered by “IC50 … A204/Smad2 cells, 0.8 nM GDF11” value: > 20 nM for the first, > 25 nM for the second.

Compared with B7, B8 is 19-fold lower in “IC50 … A204/Smad2 cells, 0.8 nM GDF11” value: 22.4 nM for the first, 1.2 nM for the second.

Going from B9 to B10, the “IC50 … A204/Smad2 cells, 0.8 nM GDF11” value rises from 1.2 nM to > 25 nM.

B11 and B12 cannot be ordered by “IC50 … A204/Smad2 cells, 0.8 nM GDF11” value: > 25 nM for the first, > 25 nM for the second.

With B13 the “IC50 … A204/Smad2 cells, 0.8 nM GDF11” value was > 25 nM.

target: T1, Human GDF8 homodimer (mature human …); assay: SPR, antibody captured, 25 nM antigen
Experimental: (§1) Equilibrium dissociation constants (KD values) for antigen binding to selected antibodies were determined by surface kinetics using a real-time biosensor surface plasmon resonance assay (BIACORE™ 2000). Each selected antibody was captured on either a goat anti-mouse IgG polyclonal antibody surface or a goat anti-hFc polyclonal antibody (Jackson Immuno Research Lab) surface created through direct chemical coupling to a BIACORE™ chip to form a captured antibody surface. Human GDF8 homodimer, hGDF11 homodimer, or hGDF5 homodimer at 25 nM was injected over the captured antibody surfaces, and antigen-antibody binding and dissociation were monitored in real time at room temperature. Kinetic analysis was performed to calculate KD, dissociation rate constants (kd), association rate constants (ka) and half-life of antigen/antibody complex dissociation (Table 2).

B1 and B2 are within 1.5-fold of each other in Kd: 0.66 nM for the first, 0.86 nM for the second.

First: B3
Second: B14
The Kd of the first is 1.7-fold lower: 0.55 nM for the first, 0.95 nM for the second.

First: B4
Second: B5
The Kd of the first is 1.8-fold higher: 1.89 nM for the first, 1.07 nM for the second. The second binds more tightly here.

Compared with B6, B7 is 4.7-fold lower in Kd: 1.23 nM for the first, 0.26 nM for the second. The second binds more tightly here.

B8 and B9 are within 1.5-fold of each other in Kd: 0.12 nM for the first, 0.14 nM for the second.

Compared with B10, B11 is 7.8-fold higher in Kd: 0.5 nM for the first, 3.9 nM for the second. The first binds more tightly here.

Compared with B15, B16 is 2.2-fold lower in Kd: 2.55 nM for the first, 1.18 nM for the second.

Going from B12 to B13, the Kd rises from 0.25 nM to 0.62 nM (2.5-fold).

Going from B1 to B2, the T1/2 falls from 95 min to 39 min (2.4-fold).

B3 and B14 are within 1.5-fold of each other in T1/2: 55 min for the first, 54 min for the second.

Compared with B4, B5 is 5.1-fold higher in T1/2: 27 min for the first, 137 min for the second.

Compared with B6, B7 is 4.4-fold higher in T1/2: 34 min for the first, 148 min for the second.

B8 and B9 are within 1.5-fold of each other in T1/2: 126 min for the first, 155 min for the second.

First: B10
Second: B11
The T1/2 of the first is 1.5-fold higher: 38 min for the first, 25 min for the second.

B15 and B16 are within 1.5-fold of each other in T1/2: 45 min for the first, 50 min for the second.

B12 and B13 are within 1.5-fold of each other in T1/2: 71 min for the first, 56 min for the second.

target: T2, hGDF11 homodimer; assay: SPR, antibody captured, 25 nM antigen
Experimental: as §1

B1 and B2 are within 1.5-fold of each other in Kd: 1.87 nM for the first, 2.08 nM for the second.

B3 and B14 are within 1.5-fold of each other in Kd: 1.09 nM for the first, 1.48 nM for the second.

Compared with B4, B5 is 2.6-fold lower in Kd: 1.33 nM for the first, 0.51 nM for the second. The second binds more tightly here.

Compared with B6, B7 is 9.1-fold lower in Kd: 1.09 nM for the first, 0.12 nM for the second. The second binds more tightly here.

B8 and B9 are within 1.5-fold of each other in Kd: 0.064 nM for the first, 0.07 nM for the second.

First: B11
Second: B15
The Kd of the first is 2-fold higher: 1.41 nM for the first, 0.7 nM for the second.

B16 and B12 are within 1.5-fold of each other in Kd: 1.08 nM for the first, 0.73 nM for the second.

B13 showed a Kd of 0.44 nM.

Going from B1 to B2, the T1/2 falls from 23 min to 2 min (12-fold).

B3 and B14 are within 1.5-fold of each other in T1/2: 34 min for the first, 24 min for the second.

First: B4
Second: B5
The T1/2 of the first is 2.4-fold lower: 29 min for the first, 71 min for the second.

Compared with B6, B7 is 4.1-fold higher in T1/2: 21 min for the first, 87 min for the second.

Compared with B8, B9 is 1.7-fold higher in T1/2: 133 min for the first, 221 min for the second.

First: B11
Second: B15
The T1/2 of the first is 2-fold lower: 39 min for the first, 79 min for the second.

First: B16
Second: B12
The T1/2 of the first is 1.6-fold lower: 32 min for the first, 50 min for the second.

B13 gave a T1/2 of 30 min.
